Experimental data reported in the supplement of paper PMC10567573.

B1: ATL3 (parent)
chain: QELEEEIKELYENFCKHNGSKNVF

Variants of: B1
Experiment: protein stability index of a GFP-peptide fusion (GPS, HEK-293T) (PSI 1-6); higher = more stable
Settings: c terminus: a fixed tail appended
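Also: lentivirally expressed fusions sorted by FACS into six bins by GFP to DsRed ratio, PSI derived from sequencing read proportions per bin multiplied by bin number.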

Protein stability index, by site and new letter:
N13: Q 2.13 | C 2.26 | K 2.15 | W 2.37
N18: S 2.42 | R 2.86 | P 2.72 | M 2.69 | H 2.94
C15: F 3.03 | A 3.86 | S 3.89 | L 1.97
K16: R 2.73 | P 3.88 | S 2.99 | T 3.03 | I 2.86 | W 2.91 | D 3.53 | V 3.15 | G 3.51 | L 3.09 | A 3.17 | F 3.11
E4: I 1.79 | N 3.96 | S 3.01 | M 2.14 | H 2.12 | G 3.2 | Q 1.56
N22: Q 2.98 | A 2.96 | C 2.34 | H 2.3 | D 1.91 | R 3.3
K8: D 3.41 | G 3.67 | F 2.48 | E 3.63 | V 3.19 | P 4.37 | H 2.86 | C 3.01 | T 3.31 | A 2.96 | Y 2.37
L3: N 2.42 | P 3.9 | W 2.21 | K 4.55 | F 3.54 | H 4 | R 4.33 | M 3.02 | Q 4.01
Q1: P 2.83 | C 2.69 | D 3.13 | Y 2.2 | F 2.09 | I 1.42 | V 2.08 | H 3.17
H17: F 3.2 | V 2.72 | P 3.34 | Y 2.42 | T 2.63 | R 2.6 | L 2.99 | E 2.51 | D 2.69 | A 2.52 | I 2.94
K21: F 1.65 | N 2.42 | V 1.82 | C 2.1 | W 1.81
S20: G 2.48 | P 3.46 | L 2.41 | H 2.59 | E 2.04 | I 2.54
Y11: W 2.96 | F 2.64 | V 3.93 | E 4.54 | C 4.16 | N 4.68
E12: R 2.19 | W 1.98 | T 2.83 | K 2.67 | D 2.89 | H 2.81 | L 2.12
E2: N 3.65 | G 3.14 | R 2.8 | P 3.68 | F 2.57 | A 2.38
F24: M 3.06 | I 2.48 | W 2.46 | T 3.11 | D 2.38
V23: M 3.24 | F 2.22 | T 2.49 | S 2.38 | I 2.62 | K 2.89 | A 2.73
L10: P 4.23 | W 3.06 | T 4.54 | C 4.14 | D 4.46
E5: A 1.96 | F 2.27 | I 1.8 | S 2.17 | D 3.27 | H 2.42 | V 2.15 | P 3.85
F14: D 4.46 | P 4.37 | W 2.58 | G 4.42 | N 4.55 | Q 4.49
I7: L 3.03 | C 4.23 | H 4.28 | S 4.09 | E 4.94 | A 4.55 | D 4.81 | F 3.49 | K 4.71
E6: D 3.59 | G 3.09 | N 3.29 | L 1.75 | Y 2.37 | Q 3.18 | H 3 | C 2.32
G19: A 2.59 | K 2.4 | R 2.54 | E 2.11 | F 2.65 | C 2.31 | Q 2.73 | H 2.87
E9: G 2.44 | F 1.86 | T 2.59 | I 1.95
